The values below come from US20210301005A1 (Genentech, published 2021).

Test [1] has as its target T1, human TGFβ2, mature receptor-binding domain (human, UniProt P09858 303-414 (pig entry), The mature TGFβ2 is a disulfide-linked homodimer of this 112-residue chain. The 4A11 epitope spans both monomers (p-1207).).
T1 construct: Peprotech; also called TGFb2
T1 sequence: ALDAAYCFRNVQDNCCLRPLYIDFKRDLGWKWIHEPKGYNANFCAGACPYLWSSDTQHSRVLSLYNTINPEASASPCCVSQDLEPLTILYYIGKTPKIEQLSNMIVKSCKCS
Description: BIAcore T200. Here is the method: (§1) For binding affinity determinations of all humanized 2A10 antibodies, Surface Plasmon Resonance (SPR) measurement with a BIAcore™-T200 instrument was used. Briefly, series S CM5 biosensor chip with protein A was first applied to capture each humanized 2A10 variant to achieve approximately 100 response units (RU) on each flow cell, following by injection of 3-fold serial dilutions of human TGFβ1, TGFβ2 or TGFβ3 (0.02 nM to 5 nM) in HBS-EP buffer (0.01M HEPES pH 7.4, 0.15M NaCl, 3 mM EDTA and 0.05% v/v surfactant P20) at 25° C. with a flow rate of 50 μl/min for kinetics measurement. Association rates (ko.) and dissociation rates (koff) were calculated using a simple one-to-one Langmuir binding model (BIAcore T200 evaluation software version 2.0) to determine the equilibrium dissociation constant (KD), which was calculated as the ratio koff/kₒₙ.

Test [2] has as its target T2, human TGFβ3, mature dimeric form (human, UniProt P10600 301-412).
T2 construct: Peprotech, expressed in E. coli; also called TGFb3
T2 sequence: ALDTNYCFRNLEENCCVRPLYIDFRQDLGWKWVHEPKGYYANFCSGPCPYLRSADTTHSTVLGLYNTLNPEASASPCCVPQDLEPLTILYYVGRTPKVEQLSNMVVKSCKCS
Description: BIAcore T200. Here is the method: as §1
Background: In SPR one partner is held on a chip, and binding of the other changes the refractive index at the surface.

Test [3] addresses T3, human TGFβ1, mature receptor-binding domain (human, UniProt P01137 279-390). Description: cell-based or functional assay.
In test [4] the target is T1, human TGFβ2, mature receptor-binding …. Description: cell-based or functional assay.
Test [5] deals with T2, human TGFβ3, mature dimeric form. Description: cell-based or functional assay.
Test [6] addresses T3, human TGFβ1, mature receptor-binding …. Description: cell-based or functional assay. The source holds these as a separate data set.
In test [7] the target is T1, human TGFβ2, mature receptor-binding …. Description: cell-based or functional assay. The source holds these as a separate data set.
Test [8] deals with T2, human TGFβ3, mature dimeric form. Description: cell-based or functional assay. The source holds these as a separate data set.
Test [9] has as its target T1, human TGFβ2, mature receptor-binding …. Description: cell-based or functional assay. This is another data set of the same source.

Where two headings read alike, the source gives them in different places.

T3 sequence (P01137 279-390 limits assumed): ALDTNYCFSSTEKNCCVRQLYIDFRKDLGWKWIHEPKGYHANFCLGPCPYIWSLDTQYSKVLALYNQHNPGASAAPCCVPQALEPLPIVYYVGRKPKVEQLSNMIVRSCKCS

B1: h2A10.v2.1 (antibody, human IgG1, kappa, N297G)
heavy: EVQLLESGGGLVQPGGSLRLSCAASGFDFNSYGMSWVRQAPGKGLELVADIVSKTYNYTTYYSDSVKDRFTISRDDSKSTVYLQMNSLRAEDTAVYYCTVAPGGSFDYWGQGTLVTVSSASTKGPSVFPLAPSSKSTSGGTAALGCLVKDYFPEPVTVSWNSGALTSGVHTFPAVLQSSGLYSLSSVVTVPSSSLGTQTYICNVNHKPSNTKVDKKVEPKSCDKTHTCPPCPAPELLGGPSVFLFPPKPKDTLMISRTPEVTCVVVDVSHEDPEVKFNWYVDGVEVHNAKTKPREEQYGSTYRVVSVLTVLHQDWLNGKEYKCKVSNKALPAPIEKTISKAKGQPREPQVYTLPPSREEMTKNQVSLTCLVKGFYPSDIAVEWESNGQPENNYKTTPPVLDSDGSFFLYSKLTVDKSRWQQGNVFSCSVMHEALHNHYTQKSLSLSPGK
light: DIQMTQSPSSLSASVGDRVTITCRASQSVSISRFNLMHWYQHKPGKQPKLLIYRASNLASGIPSRFSGSGSGTDFTLTISSLQPEDFATYYCQHSRESPWTFGGGTKVEIKRTVAAPSVFIFPPSDEQLKSGTASVVCLLNNFYPREAKVQWKVDNALQSGNSQESVTEQDSKDSTYSLSSTLTLSKADYEKHKVYACEVTHQGLSSPVTKSFNRGEC
For B1, the Kd turned out to be 0.238 nM in test [1] and 0.0031 nM in test [2]. Moreover, the “HEKBlue TGFβ blocking IC50” value in test [3] is more than 200 nM; in test [4] it was more than 200 nM; in [5], 0.01 nM.

B2: h2A10.v2.3 (antibody, human IgG1, kappa, N297G, V domains shown)
VH: EVQLLESGGGLVQPGGSLRLSCAASGFDFNSYGMSWVRQAPGKGLELVADIVSKTYNYTTYYSDSVKDRFTISRDDSKSTVYLQMNSLRAEDTAVYYCTVAPGGSFDYWGQGTLVTVSS
VL: DIQLTQSPSSLSASVGDRVTITCRASQSVSISRFNLMHWYQHKPGKAPKLLIYRASNLASGIPSRFSGSGSGTDFTLTISSLQPEDFATYYCQHSRESPWTFGGGTKVEIKR
For B2, the dissociation constant (Kd) in [1] amounted to 0.242 nM; in [2], 0.0015 nM. Besides, the figures for the “HEKBlue TGFβ blocking IC50” value in [3], in test [4] and in [5] were more than 200 nM, more than 200 nM and 0.01 nM, respectively.

B3: h2A10.v2.2 (antibody, human IgG1, kappa, N297G, V domains shown)
VH: EVQLLESGGGLVQPGGSLRLSCAASGFDFNSYGMSWVRQAPGKGLELVADIVSKTYNYTTYYSDSVKDRFTISRDDSKSTVYLQMNSLRAEDTAVYYCTVAPGGSFDYWGQGTLVTVSS
VL: DIQLTQSPSSLSASVGDRVTITCRASQSVSISRFNLMHWYQQKPGKQPKLLIYRASNLASGIPSRFSGSGSGTDFTLTISSLQPEDFATYYCQHSRESPWTFGGGTKVEIKR
With B3, the dissociation constant Kd in test [1] is 0.124 nM; in test [2], 0.0012 nM. Moreover, the “HEKBlue TGFβ blocking IC50” value in [3] was more than 200 nM; in test [4] it was more than 200 nM; in [5], 0.01 nM.

B4: h2A10.v2.4 (antibody, human IgG1, kappa, N297G, V domains shown)
VH: EVQLLESGGGLVQPGGSLRLSCAASGFDFNSYGMSWVRQAPGKGLELVADIVSKTYNYTTYYSDSVKDRFTISRDDSKSTVYLQMNSLRAEDTAVYYCTVAPGGSFDYWGQGTLVTVSS
VL: DIQLTQSPSSLSASVGDRVTITCRASQSVSISRFNLMHWYQHKPGKQPKLLIYRASNLASGVPSRFSGSGSGTDFTLTISSLQPEDFATYYCQHSRESPWTFGGGTKVEIKR
As to B4, the Kd came to 0.19 nM in test [1] and 0.0021 nM in test [2]. The “HEKBlue TGFβ blocking IC50” value was more than 200 nM in test [3], more than 200 nM in test [4] and 0.01 nM in test [5].

B5: h6F12.v1.1 (antibody, human IgG1, kappa, N297G, V domains shown)
VH: EVTLKESGPVLVKPTETLTLTCTVSGFSLTTYNVHWVRQPPGKALEWMGLIWNTGGTRYNSALKSRLTISKDTSKSQVVLTMTNMDPVDTATYYCARDPVPNKWHFDFWGPGTLVTVSS
VL: DIQMTQSPSTLSASVGDRVTITCLASEDIYSNLAWYQQKPGKAPKLLIYDARSLQDGVPSRFSGSESGPEYTLTISSLQPDDFATYFCQQHHAYPFTFGQGTKVEIKR
In the case of B5, the “HEKBlue TGFβ blocking IC50” value is more than 200 nM in test [6], 0.02 nM in [7] and more than 200 nM in [8].

B6: h6F12.v1.4 (antibody, human IgG1, kappa, N297G, V domains shown)
VH: EVTLKESGPVLVKPTETLTLTCTVSGFSLTTYNVHWVRQPPGKALEWMGLIWNTGGTRYNSALKSRLTISKDTSKSQVVLTMTNMDPVDTATYYCARDPVPNKWHFDFWGPGTLVTVSS
VL: DIQMTQSPSTLSASVGDRVTITCLASEDIYSNLAWYQQKPGKSPKLLIYDARSLQDGVPSRFSGSESGPEFTLTISSLQPDDFATYFCQQHHAYPFTFGQGTKVEIKR
Take B6: the “HEKBlue TGFβ blocking IC50” value was more than 200 nM in [6], 0.02 nM in test [7] and more than 200 nM in [8].

B7: h6F12.v1.8 (antibody, human IgG1, kappa, N297G, V domains shown)
VH: EVTLKESGPVLVKPTETLTLTCTVSGFSLTTYNVHWVRQPPGKALEWMALIWNTGGTRYNSALKSRLTISKDTSKSQVVLTMTNMDPVDTATYYCARDPVPNKWHFDFWGPGTLVTVSS
VL: DIQMTQSPSTLSASVGDRVTITCLASEDIYSNLAWYQQKPGKSPKLLIYDARSLQDGVPSRFSGSESGPEYTLTISSLQPDDFATYFCQQHHAYPFTFGQGTKVEIKR
Regarding B7, the “fold drop in blocking against h6F12.v1” value in test [9] was 4 fold. Moreover, the results for the “HEKBlue TGFβ blocking IC50” value in [6], in [7] and in [8] were more than 200 nM, 0.08 nM and more than 200 nM, respectively.

B8: h6F12.v1.2 (antibody, human IgG1, kappa, N297G, V domains shown)
VH: EVTLKESGPVLVKPTETLTLTCTVSGFSLTTYNVHWVRQPPGKALEWMGLIWNTGGTRYNSALKSRLTISKDTSKSQVVLTMTNMDPVDTATYYCARDPVPNKWHFDFWGPGTLVTVSS
VL: DIQMTQSPSTLSASVGDRVTITCLASEDIYSNLAWYQQKPGKSPKLLIYDARSLQDGVPSRFSGSGSGPEYTLTISSLQPDDFATYFCQQHHAYPFTFGQGTKVEIKR
For B8, the “HEKBlue TGFβ blocking IC50” value in test [6] is more than 200 nM; in [7] it was 0.02 nM; in test [8], more than 200 nM.

B9: h6F12.v1.3 (antibody, human IgG1, kappa, N297G, V domains shown)
VH: EVTLKESGPVLVKPTETLTLTCTVSGFSLTTYNVHWVRQPPGKALEWMGLIWNTGGTRYNSALKSRLTISKDTSKSQVVLTMTNMDPVDTATYYCARDPVPNKWHFDFWGPGTLVTVSS
VL: DIQMTQSPSTLSASVGDRVTITCLASEDIYSNLAWYQQKPGKSPKLLIYDARSLQDGVPSRFSGSESGTEYTLTISSLQPDDFATYFCQQHHAYPFTFGQGTKVEIKR
Turning to B9, the “HEKBlue TGFβ blocking IC50” value in test [6] is more than 200 nM; in [7], 0.01 nM; in test [8], more than 200 nM.

B10: h6F12.v1.5 (antibody, human IgG1, kappa, N297G, V domains shown)
VH: EVTLKESGPVLVKPTETLTLTCTVSGFSLTTYNVHWVRQPPGKALEWMGLIWNTGGTRYNSALKSRLTISKDTSKSQVVLTMTNMDPVDTATYYCARDPVPNKWHFDFWGPGTLVTVSS
VL: DIQMTQSPSTLSASVGDRVTITCLASEDIYSNLAWYQQKPGKSPKLLIYDARSLQDGVPSRFSGSESGPEYTLTISSLQPDDFATYYCQQHHAYPFTFGQGTKVEIKR
With B10, the “fold drop in blocking against h6F12.v1” value in test [9] worked out at 2 fold. In addition, the “HEKBlue TGFβ blocking IC50” value in test [6] is more than 200 nM; in [7], 0.04 nM; in [8], more than 200 nM.

B11: h6F12.v1.6 (antibody, human IgG1, kappa, N297G, V domains shown)
VH: EVTLKESGPVLVKPTETLTLTCTVSGFSLTTYNVHWIRQPPGKALEWMGLIWNTGGTRYNSALKSRLTISKDTSKSQVVLTMTNMDPVDTATYYCARDPVPNKWHFDFWGPGTLVTVSS
VL: DIQMTQSPSTLSASVGDRVTITCLASEDIYSNLAWYQQKPGKSPKLLIYDARSLQDGVPSRFSGSESGPEYTLTISSLQPDDFATYFCQQHHAYPFTFGQGTKVEIKR
Take B11: the “fold drop in blocking against h6F12.v1” value in test [9] fell in the range of 5 to 8 fold. Also, the “HEKBlue TGFβ blocking IC50” value in test [6] is more than 200 nM; in test [7], 0.11 nM; in test [8], more than 200 nM.

B12: h6F12.v1.9 (antibody, V domains shown)
VH: EVTLKESGPVLVKPTETLTLTCTVSGFSLTTYNVHWVRQPPGKALEWMGLIWNTGGTRYNSALKSRLTISKDTSKSQVVLTMTNMDPVDTATYYCARDPVPNKWHFDFWGRGTLVTVSS
VL: DIQMTQSPSTLSASVGDRVTITCLASEDIYSNLAWYQQKPGKSPKLLIYDARSLQDGVPSRFSGSESGPEYTLTISSLQPDDFATYFCQQHHAYPFTFGQGTKVEIK
Regarding B12, the “fold drop in blocking against h6F12.v1” value in [9] was in the range of 5 to 8 fold. For the same molecule, the “HEKBlue TGFβ blocking IC50” value in [6] was more than 200 nM; in test [7], 0.16 nM; in [8] it was more than 200 nM.

B13: h6F12.v1.7 (antibody, human IgG1, kappa, N297G, V domains shown)
VH: EVTLKESGPVLVKPTETLTLTCTVSGFSLTTYNVHWVRQPPGKALEWLGLIWNTGGTRYNSALKSRLTISKDTSKSQVVLTMTNMDPVDTATYYCARDPVPNKWHFDFWGPGTLVTVSS
VL: DIQMTQSPSTLSASVGDRVTITCLASEDIYSNLAWYQQKPGKSPKLLIYDARSLQDGVPSRFSGSESGPEYTLTISSLQPDDFATYFCQQHHAYPFTFGQGTKVEIKR
As to B13, the “HEKBlue TGFβ blocking IC50” value in [6] is more than 200 nM; in test [7], 0.03 nM; in [8], more than 200 nM.

As a reminder, the Kd is the equilibrium constant for the complex coming apart. High values mean weaker binding, low ones tighter binding.
